Source: US20030207290A1 (MESO SCALE TECHNOLOGIES, published 2003)
Where no end group is shown, it is not given here. [ ]: non-standard residue; d: D form. pS = N[C@@H](COP(=O)(O)O)C(=O)O

T1: EGFR-pY992 phosphopeptide, DADE(p)YLIPQQGFFSSPSTSC (phosphotyrosine at (p)Y (residue 5 of the printed peptide; EGFR Tyr992))
T1 construct: also called EGFR-pTyr992
T1 peptide: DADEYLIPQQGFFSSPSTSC

B1: Phospholipase C gamma 1 (PLCγ) (EST clone IMAGE 4419252), in vitro translated, biotin-labelled (enzyme, UniProt P19174 1-1290, looked up)
chain: MAGAASPCANGCGPGAPSDAEVLHLCRSLEVGTVMTLFYSKKSQRPERKTFQVKLETRQITWSRGADKIEGAIDIREIKEIRPGKTSRDFDRYQEDPAFRPDQSHCFVILYGMEFRLKTLSLQATSEDEVNMWIKGLTWLMEDTLQAPTPLQIERWLRKQFYSVDRNREDRISAKDLKNMLSQVNYRVPNMRFLRERLTDLEQRSGDITYGQFAQLYRSLMYSAQKTMDLPFLEASTLRAGERPELCRVSLPEFQQFLLDYQGELWAVDRLQVQEFMLSFLRDPLREIEEPYFFLDEFVTFLFSKENSVWNSQLDAVCPDTMNNPLSHYWISSSHNTYLTGDQFSSESSLEAYARCLRMGCRCIELDCWDGPDGMPVIYHGHTLTTKIKFSDVLHTIKEHAFVASEYPVILSIEDHCSIAQQRNMAQYFKKVLGDTLLTKPVEISADGLPSPNQLKRKILIKHKKLAEGSAYEEVPTSMMYSENDISNSIKNGILYLEDPVNHEWYPHYFVLTSSKIYYSEETSSDQGNEDEEEPKEVSSSTELHSNEKWFHGKLGAGRDGRHIAERLLTEYCIETGAPDGSFLVRESETFVGDYTLSFWRNGKVQHCRIHSRQDAGTPKFFLTDNLVFDSLYDLITHYQQVPLRCNEFEMRLSEPVPQTNAHESKEWYHASLTRAQAEHMLMRVPRDGAFLVRKRNEPNSYAISFRAEGKIKHCRVQQEGQTVMLGNSEFDSLVDLISYYEKHPLYRKMKLRYPINEEALEKIGTAEPDYGALYEGRNPGFYVEANPMPTFKCAVKALFDYKAQREDELTFIKSAIIQNVEKQEGGWWRGDYGGKKQLWFPSNYVEEMVNPVALEPEREHLDENSPLGDLLRGVLDVPACQIAIRPEGKNNRLFVFSISMASVAHWSLDVAADSQEELQDWVKKIREVAQTADARLTEGKIMERRKKIALELSELVVYCRPVPFDEEKIGTERACYRDMSSFPETKAEKYVNKAKGKKFLQYNRLQLSRIYPKGQRLDSSNYDPLPMWICGSQLVALNFQTPDKPMQMNQALFMTGRHCGYVLQPSTMRDEAFDPFDKSSLRGLEPCAISIEVLGARHLPKNGRGIVCPFVEIEVAGAEYDSTKQKTEFVVDNGLNPVWPAKPFHFQISNPEFAFLRFVVYEEDMFSDQNFLAQATFPVKGLKTGYRAVPLKNNYSEDLELASLLIKIDIFPAKENGDLSPFSGTSLRERGSDASGQLFHGRAREGSFESRYQQPFEDFRISQEHLADHFDSRERRAPRRTRVNGDNRL
modifications: biotin on some lysine residues (incorporated at random from biotin-Lys-tRNA)
notes: also called PLCg
B2: βTRCP2 (EST clone IMAGE 4237375), in vitro translated, biotin-labelled (other, human, UniProt Q9UKB1 1-542, looked up)
chain: MEPDSVIEDKTIELMCSVPRSLWLGCANLVESMCALSCLQSMPSVRCLQISNGTSSVIVSRKRPSEGNYQKEKDLCIKYFDQWSESDQVEFVEHLISRMCHYQHGHINSYLKPMLQRDFITALPEQGLDHIAENILSYLDARSLCAAELVCKEWQRVISEGMLWKKLIERMVRTDPLWKGLSERRGWDQYLFKNRPTDGPPNSFYRSLYPKIIQDIETIESNWRCGRHNLQRIQCRSENSKGVYCLQYDDEKIISGLRDNSIKIWDKTSLECLKVLTGHTGSVLCLQYDERVIVTGSSDSTVRVWDVNTGEVLNTLIHHNEAVLHLRFSNGLMVTCSKDRSIAVWDMASATDITLRRVLVGHRAAVNVVDFDDKYIVSASGDRTIKVWSTSTCEFVRTLNGHKRGIACLQYRDRLVVSGSSDNTIRLWDIECGACLRVLEGHEELVRCIRFDNKRIVSGAYDGKIKVWDLQAALDPRAPASTLCLRTLVEHSGRVFRLQFDEFQIISSSHDDTILIWDFLNVPPSAQNETRSPSRTYTYISR
modifications: biotin on some lysine residues (incorporated at random from biotin-Lys-tRNA)
notes: Product of a coupled transcription/translation reaction, used without purification; also called βTRCP [c]; bTRCP2
B3: βTRCP1 (EST clone IMAGE 3491843), in vitro translated, biotin-labelled (other, human, UniProt Q9Y297 1-605, looked up)
chain: MDPAEAVLQEKALKFMCSMPRSLWLGCSSLADSMPSLRCLYNPGTGALTAFQNSSEREDCNNGEPPRKIIPEKNSLRQTYNSCARLCLNQETVCLASTAMKTENCVAKTKLANGTSSMIVPKQRKLSASYEKEKELCVKYFEQWSESDQVEFVEHLISQMCHYQHGHINSYLKPMLQRDFITALPARGLDHIAENILSYLDAKSLCAAELVCKEWYRVTSDGMLWKKLIERMVRTDSLWRGLAERRGWGQYLFKNKPPDGNAPPNSFYRALYPKIIQDIETIESNWRCGRHSLQRIHCRSETSKGVYCLQYDDQKIVSGLRDNTIKIWDKNTLECKRILTGHTGSVLCLQYDERVIITGSSDSTVRVWDVNTGEMLNTLIHHCEAVLHLRFNNGMMVTCSKDRSIAVWDMASPTDITLRRVLVGHRAAVNVVDFDDKYIVSASGDRTIKVWNTSTCEFVRTLNGHKRGIACLQYRDRLVVSGSSDNTIRLWDIECGACLRVLEGHEELVRCIRFDNKRIVSGAYDGKIKVWDLVAALDPRAPAGTLCLRTLVEHSGRVFRLQFDEFQIVSSSHDDTILIWDFLNDPAAQAEPPRSPSRTYTYISR
modifications: biotin on some lysine residues (incorporated at random from biotin-Lys-tRNA)
notes: Product of a coupled transcription/translation reaction, used without purification; the text speaks of the genes in the human genome and of full-length cDNAs; also called βTRCP [c]; bTRCP1
B4: Shc1 (EST clone IMAGE 3907115), in vitro translated, biotin-labelled (other, UniProt P29353-2 1-473, looked up)
chain: MNKLSGGGGRRTRVEGGQLGGEEWTRHGSFVNKPTRGWLHPNDKVMGPGVSYLVRYMGCVEVLQSMRALDFNTRTQVTREAISLVCEAVPGAKGATRRRKPCSRPLSSILGRSNLKFAGMPITLTVSTSSLNLMAADCKQIIANHHMQSISFASGGDPDTAEYVAYVAKDPVNQRACHILECPEGLAQDVISTIGQAFELRFKQYLRNPPKLVTPHDRMAGFDGSAWDEEEEEPPDHQYYNDFPGKEPPLGGVVDMRLREGAAPGAARPTAPNAQTPSHLGATLPVGQPVGGDPEVRKQMPPPPPCPGRELFDDPSYVNVQNLDKARQAVGGAGPPNPAINGSAPRDLFDMKPFEDALRVPPPPQSVSMAEQLRGEPWFHGKLSRREAEALLQLNGDFLVRESTTTPGQYVLTGLQSGQPKHLLLVDPEGVVRTKDHRFESVSHLISYHMDNHLPIISAGSELCLQQPVERKL
modifications: biotin on some lysine residues (incorporated at random from biotin-Lys-tRNA)
B5: IkBa phosphopeptide (IkBa-24pp), LKKERLLDDRHD(p)SGLD(p)SMKDEEYC (peptide)
peptide: LKKERLLDDRHD[pS]GLD[pS]MKDEEYC
modifications: not fully specified (residue 24); also: C-terminal Cys coupled to maleimide-activated BSA
notes: Chemically synthesized; the peptide-BSA conjugate was deposited on the electrode; also called IkBa peptide; IkBa-24ppC

What was measured:
[1] = target: B5; test: ECL 4-spot multi-array binding assay: peptide-BSA spot, biotinylated TnT protein, Sulfo-TAG streptavidin
[2] = target: B5; test: ECL plate binding assay: peptide-BSA on electrode, biotinylated TnT protein, Sulfo-TAG streptavidin
Method: (§1) Also included were three other non specific EST clones as controls (Incyte, Palo alto, Calif.). […] Proteins were transferred into wells of the peptide-coated and BSA-blocked IPR plates. Sulfo-TAG labeled streptavidin (50 to 100 ng/well) was added to each well as the detection agent. […] The ECL signals were measured using an imaging plate reader (IPR).

[3] = target: T2, c-Myc phosphopeptide (Myc-p58Tp62S), …(p)TPPL(p)SPSRRSGL (phosphothreonine and phosphoserine in P(p)TPPL(p)S (residues 15 and 19 of the printed peptide)); test: as above
T2 construct: Chemically synthesized; control peptide; also called c-Myc peptide
T2 sequence (peptide, as listed by the source): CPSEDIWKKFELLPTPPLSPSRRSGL
Method: as §1

[4] = target: T1, EGFR-pY992 phosphopeptide, …; test: ECL 4-spot multi-array binding assay: peptide-BSA spot, biotinylated TnT protein, Sulfo-TAG streptavidin
[5] = target: T1, EGFR-pY992 phosphopeptide, …; test: ECL 7-spot plate screen, peptide-BSA spot, biotinylated TnT protein, Ru-streptavidin; signal normalized in two steps
[6] = target: B4; test: ECL plate binding assay, peptide-BSA on electrode
[7] = target: B1; test: ECL plate binding assay, peptide-BSA on electrode

Binder	Average ECL signal [2] [ECL signal]	Average ECL signal [3] [ECL signal]	ECL signal [4] [ECL signal]	normalized ECL signal [5]	also measured
B1	341	316			ECL signal [1]: 26 ECL signal
B2			60	1	
B3			54	1	
B4	368	341			
B5					binding result [6]: no binding; binding result [7]: no binding
